What all share (assay type): cell-based, E. coli
One data set has as its system bacterial cell growth. In words: Bacterial cell growth / cell density in growth medium.
Another data set concerns emGFP-E90DOPA. In words: MALDI-TOF MS analysis of tryptic digest of emGFP-E90DOPA, specificity of incorporation. To be noted: 3 mM L-DOPA, position 90. From the text: A wild-type emGFP gene was obtained from commercially available sources by gene synthesis, amplified by PCR, and inserted between the BspHI and KpnI sites of pBAD/Myc-His (Invitrogen) to generate pBAD-emGFP (SEQ ID NO: 10). An amber codon (TAG) was incorporated at position 39 or 90 in the emGFP by site-specific mutants. A plasmid containing each amber codon was incorporated into E. coli DH10 used as a prokaryote host cell with pEvol-DOPA-RS1 (SEQ ID NO: 6), pEvol-DOPA-RS2 (SEQ ID NO: 7), or pEvol-DOPA-RS (SEQ ID NO: 8) to co-transform the E. coli DH10 (Comparative Example 1: […], Example 1: DOPA-RS1, Example 2: DOPA-RS2). Cells were amplified in an LB medium (lysogeny broth) supplemented with ampicillin (100 μg/mL) and chloramphenicol (35 μg/mL). […] Protein expression was induced by adding 0.2% L-arabinose when the optical density reached 0.8, and the culture was cultured overnight at 37° C. […] Protein concentrations were calculated by measuring absorbance at 280 nm and using the calculated extinction coefficient (2.2×10^4 cm^−1M^−1 for emGFP). […]
In order to express an emGFP-E90DOPA mutant, the expressed protein was purified, followed by tryptic degradation and then evaluated by MALDI-TOF (matrix-assisted laser desorption/ionization-time of flight) MS analysis (FIG. 2). […]

The subject of data set [1] is emGFP containing an amber mutation (TAG) at position 39 or 90. In words: emGFP fluorescence from cytolysate, efficiency of genetic incorporation of L-DOPA. To be noted: all L-DOPA concentrations (1 mM to 3 mM), positions 39 and 90 of emGFP. From the text:
A wild-type emGFP gene was obtained from commercially available sources by gene synthesis, amplified by PCR, and inserted between the BspHI and KpnI sites of pBAD/Myc-His (Invitrogen) to generate pBAD-emGFP (SEQ ID NO: 10). An amber codon (TAG) was incorporated at position 39 or 90 in the emGFP by site-specific mutants. A plasmid containing each amber codon was incorporated into E. coli DH10 used as a prokaryote host cell with pEvol-DOPA-RS1 (SEQ ID NO: 6), pEvol-DOPA-RS2 (SEQ ID NO: 7), or pEvol-DOPA-RS (SEQ ID NO: 8) to co-transform the E. coli DH10 (Comparative Example 1: […], Example 1: DOPA-RS1, Example 2: DOPA-RS2). Cells were amplified in an LB medium (lysogeny broth) supplemented with ampicillin (100 μg/mL) and chloramphenicol (35 μg/mL). […] Protein concentrations were calculated by measuring absorbance at 280 nm and using the calculated extinction coefficient (2.2×10^4 cm^−1M^−1 for emGFP).
Cells (2×10^9) were harvested by centrifugation at 10,000 rpm and 4° C. for 5 minutes, and cell pellets were lysed for 1 hour with Bugbuster (Novagen) (50 μL) supplemented with benzonase (Sigma) ([…]). The cytolysate was removed by centrifugation at 13,000 rpm and 4° C. for 10 minutes, and the supernatant was directly used for fluorescence measurement. Fluorescence was measured at 510 nm with excitation at 487 nm. […]

The values that follow come from US11220682B2 (SOGANG UNIVERSITY RESEARCH & BUSINESS DEVELOPMENT FOUNDATION, priority 2017, dated 2022).

Experimental for bacterial cell growth: The starter culture (2 mL) was transferred to a limiting medium (100 mL) (50 mM Na2HPO4, 50 mM KH2PO4, 50 mM (NH4)2504, 2 mM MgSO4, 0.1% trace metals, 0.5% glycerol, 0.05% glucose, and 5% amino acids, and pH 7.25) supplemented with ampicillin (100 μg/mL), chloramphenicol (35 μg/mL), 100 μM pyruvate, 10 mM catechol, and 300 μM DTT at 30° C. Protein expression was induced by adding 0.2% L-arabinose when the optical density reached 0.8, and the culture was cultured overnight at 30° C.
A simple solution was to maximize the concentrations of catechol, pyruvate, and ammonia in a growth medium. […] In the growth medium, 50 mM pyruvate and 25 mM ammonia were added as starting materials together with various concentrations (0 mM to 10 mM) catechol.

Consider `Oc1ccccc1O` [catechol], for which the toxicity entry with bacterial cell growth (10 mM catechol) is “a reasonable toxicity was observed”. Besides, the “concentration that inhibited bacterial cell growth” value in the data set on bacterial cell growth (preliminary test, growth medium) was “more than 8 mM”.

B1: DOPA-RS2 (protein)
chain: MDEFEMIKRNTSEIISEEELREVLEKDEKSALIGFEPSGKIHLGHYLQIKKMIDLQNAGFDIIILLSDLNAYLNQKGELDEIRKIGDYNKKVFEAMGLKAKYVYGSEFQLDKDYTLNVYRLALKTTLKRARRSMELIAREDENPKVAEVIYPIMQVNDIHYLGVDVLVGGMEQRKIHMLARELLPKKVVCIHNPVLTGLDGEGKMSSSKGNFIAVDDSPEEIRAKIKKAYCPAGVVEGNPIMEIAKYFLEYPLTIKRPEKFGGDLTVNSYEELESLFKNKELHPMDLKNAVAEELIKILEPIRKRL
modifications: Artificial DOPA_RS-2 Sequence
In the case of B1, in the data set on emGFP-E90DOPA, the incorporation of tyrosine result is reported as “not detected”. Further, the “efficiency in incorporation of L-DOPA (emGFP expression), rank order” value in data set [1] is “DOPA-RS2>DOPA-RS1>DOPA-RS”.

B2: DOPA-RS1 (protein)
chain: MDEFEMIKRNTSEIISEEELREVLEKDEKSALIGFEPSGKIHLGHYLQIKKMIDLQNAGFDIIILLSDLNAYLNQKGELDEIRKIGDYNKKVFEAMGLKAKYVYGSEFQLDKDYTLNVYRLALKTTLKRARRSMELIAREDENPKVAEVIYPIMQVNDIHYLGVDVNVGGMEQRKIHMLARELLPKKVVCIHNPVLTGLDGEGKMSSSKGNFIAVDDSPEEIRAKIKKAYCPAGVVEGNPIMEIAKYFLEYPLTIKRPEKFGGDLTVNSYEELESLFKNKELHPMDLKNAVAEELIKILEPIRKRL
modifications: Artificial DOPA_RS-1 Sequence
For the molecule B2, the incorporation of tyrosine entry in the data set with emGFP-E90DOPA is reported as “not detected”. Moreover, the “efficiency in incorporation of L-DOPA (emGFP expression), rank order” value in data set [1] is “DOPA-RS2>DOPA-RS1>DOPA-RS”.
